Laboratory results reported in US20140079722A1, “EXTRACELLULAR TARGETED DRUG CONJUGATES” (CENTROSE, LLC, priority 2011, published 2014).
Substitutions are numbered along the chain they refer to.

Assays:
[1] = system: NSCLC cell line A549; assay: In vitro cytotoxicity of M53-PEG24-CEN09-106 drug combinations; type: cell-based; settings: Homo sapiens
Description: The studies employed a fixed ratio of the drugs (based on the EC50 values of each alone) across a concentration gradient. Single drug ED50 values were first determined and from those values combination analysis were prepared by 3-fold serial dilutions in 8 steps for all compounds. Combinations were tested using fixed concentration ratios. […] All compound concentrations and combinations were tested in duplicate. Cell culture and cell viability assays were performed as described.

[2] = system: PANC-1 xenograft; assay: PANC-1 xenograft model, alone and with gemcitabine; type: in vivo, C.B-17/IcrHsd-Prkdc scid Lyst bg mice; settings: gemcitabine alone 60 mg/kg i.p. q3dx5
Description: A disease model of pancreatic cancer was established by implanting 5×10^6 PANC-1 cells in 100 μL DMEM into the left flank of 7 week old female C.B-17/IcrHsd-Prkdc^scidLyst^bg mice. Mice were then treated with M53-PEG24-CEN09-106 with a drug loading of 8 and/or gemcitabine when the tumor size in groups of 3 animals averaged ˜500 mm^3. Treatments consisted of either vehicle control, M53-PEG24-CEN09-106 at 0.2, 1 and 5 mg/kg, with and without 60 mg/kg gemcitabine or 60 mg/kg gemcitabine alone and consisted of multiple injections using the M53-PEG24-CEN09-106 schedule of one injection every 7 days for 3 injections (q7d×3) administered i.v. and the gemcitabine schedule of one injection every 3 days for 5 injections (q3d×5) administered i.p. Tumor volumes were measured for each group using calibrated vernier calipers and plotted against first day of tumor implant for 28 days post-initial dose, graphed and shown in FIG. 6.

[3] = system: A549 xenografts; assay: Second A549 xenograft study (tumor fragments); type: in vivo, female HRLN nu/nu mice; settings: for growth inhibition of the tumor compared to vehicle: 100 days post-initial dose, EDC (loading 3) 5 mg/kg i.p. q3dx4, scillarenin aminoxyloside 20 mg/kg q2dx5, paclitaxel 15 mg/kg q1dx5; for weight loss: same dosing as efficacy arms, second A549 xenograft study
Description: Briefly, to establish a non-small-cell lung cancer disease model, subcutaneous A549 xenografts were initiated in female HRLN nu/nu mice by implanting 8 mm^3 A549 tumor fragments subcutaneously into the left flank. Tumor growth was monitored, and mice bearing tumors of 60-180 mm^3 were selected for the study. Tumor-bearing mice (n=7 mice/group) with a group average tumor volume of approximately 110 mm^3 were treated i.p. with 5 mgs/kg M53-PEG24-CEN09-106 at q3d×4, 20 mg/kg scillarenin-4-amino-deoxy-L-xylopryanoside (an intermediate in the construction of M53-PEG24-CEN09-106 and known cytotoxin) at q2dx5, and 15 mg/kg paclitaxel at q1d×5. Tumor volumes were measured for each group using calibrated vernier calipers plotted against day of first dose for 100 days to produce the graph shown in FIG. 4.
Paclitaxel at its optimum dosing produced 80% growth inhibition of the tumor when compared to vehicle.

[4] = system: H460 xenograft; assay: H460 xenograft model; type: in vivo, Hsd:Athymic Nude-Foxn1nu mice; settings: H460 xenograft
Description: Briefly, to establish a large-cell lung cancer disease model, 1×10^6 H-460 cells in 100 μL RPMI1640+30% Matrigel HC (BD Biosciences, San Jose, Calif.) were implanted into the left flank of Hsd:Athymic Nude-Foxn1^nu mice (Harlan, Indianapolis, Ind.). Therapy was initiated when the tumor size in groups of 5 animals averaged ˜200 mm^3. Treatment using vehicle control, M53-PEG24-CEN09-106 at 0.1 and 1 mg/kg, and 10 mg/kg control M53-PEG24-CEN09-106 (as described above) consisted of multiple i.v. injections using the schedule of one injection every 7 days for 2 injections (q7d×2). Paclitaxel served as a positive control treatment group and was dosed i.v. at 15 mg/kg using the schedule of one injection every 2 days for 5 injections (q2d×5). Using this schedule, tumor volumes were measured for each group using calibrated vernier calipers and plotted against day of tumor implant for 24 days post-implant and 12 days post-initial dose, graphed and shown in FIG. 5.

[5] = system: A549 xenograft; assay: A549 xenograft model (cell implant); type: in vivo, Hsd:Athymic Nude-Foxn1nu mice; settings: controls: paclitaxel 15 mg/kg q2dx5; control conjugate (loading 7) 10 mg/kg i.v. q7dx3; A549 xenograft
Description: Briefly, to establish a non-small-cell lung cancer disease model, 6×10^6 A549 cells in 200 μL, RPMI1640+50% Matrigel HC (BD Biosciences, San Jose, Calif.) were implanted into the left flank of Hsd:Athymic Nude-Foxn1^nu mice (Harlan, Indianapolis, Ind.). Therapy with antibody-drug conjugates was then initiated when the tumor volume in groups of 5 animals averaged ˜300 mm^3. Treatment using vehicle control, 0.1 and 1 mg/kg M53-PEG24-CEN09-106, and 10 mg/kg control M53-PEG24-CEN09-106 (a control conjugate with a drug loading of 7 drugs per antibody where the antibody's target is not on the cell surface but drug and linker and antibody isotype are the same as M53-PEG24-CEN09-106) were all administered i.v. using the schedule of one injection every 7 days with 3 total injected doses (q7d×3). 15 mg/kg paclitaxel dosed at q2d×5 served as a positive control treatment group. Using this schedule, tumor volumes were measured for each group using calibrated vernier calipers and plotted against first day of tumor implant for 54 days post-implant and 40 days post-initial dose, to produce the graph shown in FIG. 3.

[6] = target: T1, human dysadherin (human, UniProt Q96DB9 22-178); assay: cell-based or functional assay
T1 chain: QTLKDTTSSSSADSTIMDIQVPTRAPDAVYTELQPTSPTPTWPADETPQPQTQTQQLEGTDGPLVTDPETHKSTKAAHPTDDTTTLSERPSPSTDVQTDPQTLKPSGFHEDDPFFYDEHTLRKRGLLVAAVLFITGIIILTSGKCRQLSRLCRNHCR

[7] = system: NSCLC cell line A549; assay: In vitro activity of chimeric and scFv conjugates against A549; settings: A549 cells; scFv conjugates
Description: Cells were incubated with the agent/conjugate for 3 days before cell viability testing. Cell viability testing used the CellTiter-Glo luminescent cell viability assay (Promega, Madison, Wis.).

[8] = target: T1, human dysadherin; assay: cell-based or functional assay

Molecule: CO[C@H]1C[C@@H]2CC[C@@H](C)[C@@](O)(O2)C(=O)C(=O)N2CCCC[C@H]2C(=O)O[C@H]([C@H](C)C[C@@H]2CC[C@@H](OCCO)[C@H](OC)C2)CC(=O)[C@H](C)/C=C(\C)[C@@H](O)[C@@H](OC)C(=O)[C@H](C)C[C@H](C)/C=C/C=C/C=C/1C [Everolimus]
- EC50 ([1]; drug alone, A549 cells, read-out: EC50): 11 nM

Molecule: Nc1ccn([C@@H]2O[C@H](CO)[C@@H](O)C2(F)F)c(=O)n1 [Gemcitabine, reference compound]
- growth inhibition of the tumor compared to vehicle [2]: 68%

Molecule: CCN(CC)CCCCNc1ncc2cc(-c3cc(OC)cc(OC)c3)c(NC(=O)NC(C)(C)C)nc2n1 [PD 0173074]
- EC50 ([1]; A549): 29000 nM

Molecule: CC(=O)O[C@H]1C(=O)[C@@]2(C)[C@H]([C@H](OC(=O)c3ccccc3)[C@]3(O)C[C@H](OC(=O)[C@H](O)[C@@H](NC(=O)c4ccccc4)c4ccccc4)C(C)=C1C3(C)C)[C@]1(OC(C)=O)CO[C@@H]1C[C@@H]2O [Paclitaxel, reference compound]
- growth inhibition of the tumor compared to vehicle [3]: 80%
- weight loss [3]: 11%
- weight loss ([4]; EDC 0.1 mg/kg q7dx2, paclitaxel 15 mg/kg q2dx5): 15%
- growth inhibition of the tumor compared to vehicle ([4]; controls: paclitaxel 15 mg/kg i.v. q2dx5, control conjugate 10 mg/kg i.v. q7dx2): 78%
- growth inhibition of the tumor compared to vehicle [5]: 45%

Molecule: C[C@]12CC[C@H](OC3OC[C@H](N)[C@@H](O)[C@@H]3O)C=C1CCC1C2CC[C@]2(C)[C@@H](c3ccc(=O)oc3)CC[C@]12O (stereo partly drawn) [Scillarenin-4-amino-4-deoxy-L-xylopyranoside]
- growth inhibition of the tumor compared to vehicle [3]: 60%
- weight loss [3]: 8%

B1: scFv-PEG24-CEN09-106 (scFv)
scFv: ECQLVESGGGLVQPKGTLKLSCAASGFSFNTHAMNWVRQAPGKSLEWVARTMSKSNNYATYYADSVKDRFIISRDDSQSMLYLQMNNLKTEDTAMYYCVRDDPKRGMDYWGQGTSVTVSSGGGGSGGGGSGGGGSGIVMSQSPSSLAVSVGEKVTMSCKPSQSLLYSRNQKIYLAWYQQKPGQSPKLLIYWASTRESGVPDRFTGSGSGTDFTLIISSVRAEDLAVYYCQQYYNYPLTFGAGTKLELK
modifications: PEG24-CEN09-106 (scillarenin linker-drug) on the unpaired cysteine (position 23 of SEQ ID NO: 30)
- EC50, in vitro activity against A549 cells [6]: 1.6 nM

B2: scFv-PEG36-CEN09-016: scFv conjugate with PEG36 linker, 1 drug per scFv (conjugate)
scFv: B1 scFv
- EC50 [7]: 1.1 nM

B3: scFv-PEG12-CEN09-016: scFv conjugate with PEG12 linker, 1 drug per scFv (conjugate)
scFv: B1 scFv
- EC50 [7]: 9.1 nM

B4: M53-PEG24-CEN10-110 (antibody, V domains shown)
VH: EVQLVESGGGLVQPKGTLKLSCAASGFSFNTHAMNWVRQAPGKSLEWVARTMSKSNNYATYYADSVKDRFIIRADDSQSMLYLQMNNLKTEDTAMYYCVRDDPKRGMDYWGQGTSVTVSS
VL: GIVMSQSPSSLAVSVGEKVTMSCKPSQSLLYSRNQKIYLAWYQQKPGQSPKLLIYWASTRESGVPDRFTGSGSGTDFTLIISSVRAEDLAVYYCQQYYNYPLTFGAGTKLELKR
modifications: PEG24-CEN10-110 on reduced cysteine thiols; positions not given; PEG24-CEN10-110 (scillarenin linker-drug with lysine in the linker) on reduced cysteine thiols; positions not given
- EC50, cytotoxicity (CellTiter-Glo cell viability), A375 cells [8]: 0.5 nM
- EC50, cytotoxicity (CellTiter-Glo cell viability), A549 cells [8]: 0.1 nM
- EC50, cytotoxicity (CellTiter-Glo cell viability), H460 cells [8]: 0.2 nM

B5: cM53-PEG24-CEN09-106 (antibody, human IgG1, kappa, V domains shown)
VH: B4 VH with V2C, R73S, A74R
VL: B4 VL
modifications: PEG24-CEN09-106 on cysteine thiols; positions not stated (cysteine in place of valine at position 2 of SEQ ID NO: 23)
- EC50, in vitro activity against A549 cells [6]: 2 nM

B6: M53-PEG24-CEN09-107 (antibody, V domains shown)
VH: B4 VH
VL: B4 VL
modifications: PEG24-CEN09-107 on reduced cysteine thiols; positions not given; PEG24-CEN09-107 (scillarenin 4-amino-riboside PEG24 maleimide linker-drug) on reduced cysteine thiols; positions not given
- EC50, cytotoxicity (CellTiter-Glo cell viability), A375 cells [8]: 2.6 nM
- EC50, cytotoxicity (CellTiter-Glo cell viability), A549 cells [8]: 0.5 nM

B7: M53-PEG24-CEN-319 (antibody, V domains shown)
VH: B4 VH
VL: B4 VL
modifications: PEG24-CEN-319 on reduced cysteine thiols; positions not given; PEG24-CEN-319 (digitoxigenin 4-amino-xyloside PEG24 maleimide linker-drug) on reduced cysteine thiols; positions not given
- EC50, cytotoxicity (CellTiter-Glo cell viability), A549 cells [8]: 1.6 nM
- EC50, cytotoxicity (CellTiter-Glo cell viability), H929 cells [8]: > 200 nM
- EC50, cytotoxicity (CellTiter-Glo cell viability), PANC cells [8]: > 200 nM
